According to paper PMC6697678:

Target: recombinant human soluble FcγRIIIa glycoprotein with a C-terminal hexahistidine tag (N-glycosylation sites kept at Asn45 and Asn162 only) (human)
Experiment: high-speed atomic force microscopy (HS-AFM), bound-state dwell time

Substance | dwell time [s] | stoichiometry N
rituximab, anti-CD20 mouse/human-chimeric IgG1 (G1m17,1; Km3) (antibody) | 1 | 1
trastuzumab, anti-HER2 humanized IgG1 (G1m17,1; Km3) (antibody) | 1 | 1
